# Data as given in patent US10766960 (dated 2020).
# Changes are numbered by the printed parent chain.
# T1: FcgRIa (human, UniProt P12314)
# T1 chain: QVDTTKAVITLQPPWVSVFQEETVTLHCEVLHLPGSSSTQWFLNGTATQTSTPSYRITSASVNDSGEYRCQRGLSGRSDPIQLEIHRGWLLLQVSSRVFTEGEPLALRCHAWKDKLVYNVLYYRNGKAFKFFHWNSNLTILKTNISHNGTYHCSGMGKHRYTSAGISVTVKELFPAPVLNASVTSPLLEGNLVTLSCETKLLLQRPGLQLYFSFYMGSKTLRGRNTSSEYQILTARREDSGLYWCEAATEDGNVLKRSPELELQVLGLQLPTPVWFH
# T2: FcgRIIa H (human, UniProt P12318)
# T2 chain: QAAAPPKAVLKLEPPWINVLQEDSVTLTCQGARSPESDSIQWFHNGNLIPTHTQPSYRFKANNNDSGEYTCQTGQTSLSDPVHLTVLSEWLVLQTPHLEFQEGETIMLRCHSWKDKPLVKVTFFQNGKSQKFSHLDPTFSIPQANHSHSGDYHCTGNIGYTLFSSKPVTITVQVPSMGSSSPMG
# T3: FcgRIIb (human, UniProt P31994)
# T3 chain: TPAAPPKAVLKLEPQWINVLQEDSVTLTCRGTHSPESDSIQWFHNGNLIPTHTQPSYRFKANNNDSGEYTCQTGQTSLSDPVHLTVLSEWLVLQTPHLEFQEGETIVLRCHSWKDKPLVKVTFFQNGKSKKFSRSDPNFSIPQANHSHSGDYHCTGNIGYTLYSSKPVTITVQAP
# T4: FcgRIIa R (human, UniProt P12318)
# T4 chain: T2 chain with H134R
# B1: H240-Kn032/H240-Hl032/L73-k0 (antibody)
# chain 1: QDQLVQSGAEVKKPGASVKVSCKASGFNIKDTYIQWVRQAPGQGLEWMGRIDPLRKQTKYREKFEGRVTITADTSTNTAYMELSSLRSEDTAVYYCVRSGREFDYWGQGTLVTVSSASTKGPSVFPLAPSSKSTSGGTAALGCLVKDYFPEPVTVSWNSGALTSGVHTFPAVLQSSGLYSLSSVVTVPSSSLGTQTYICNVNHKPSNTKVDKKVEPKSCDKTHTCPPCPAPELLGGPDVFLFPPKPKDTLMISRTPEVTCVVVDVSHEDPEVKFNWYVDGVEVHNAKTKPREEQYNSTYRVVSVLTVLHQDWLNGKEYKCKVSNKALPLPEEKTISKAKGQPREPQVCTLPPSRDELTKNQVSLWCLVKGFYPSDIAVEWESNGQPENNYKTTPPVLDSDGSFFLYSKLTVDKSRWQQGNVFSCSVMHEALHNHYTQKSLSLSP
# chain 2: B1 chain 1 with C348Y, D355C, W365S, L367A, Y406V
# chain 3: DIQMTQSPSSLSASVGDRVTITCRASQDIHKYIAWYQQKPGQAPRLLIQYTSTLQPGVPSRFSGSGSGTDYTFTISSLQPEDIATYYCLQYEQLRTFGGGTKVEIKRTVAAPSVFIFPPSDEQLKSGTASVVCLLNNFYPREAKVQWKVDNALQSGNSQESVTEQDSKDSTYSLSSTLTLSKADYEKHKVYACEVTHQGLSSPVTKSFNRGEC
# B2: GpH7-Kn037/GpH7-Hl036/GpL16-k0 (antibody)
# chain 1: QVQLVQSGAEVKKPGASVTVSCKASGYTFTDYEMHWIRQPPGEGLEWIGAIDPKTGDTAYSESFQDRVTLTADKSTSTAYMELSSLTSEDTAVYYCTRFYSYTYWGQGTLVTVSSASTKGPSVFPLAPSSKSTSGGTAALGCLVKDYFPEPVTVSWNSGALTSGVHTFPAVLQSSGLYSLSSVVTVPSSSLGTQTYICNVNHKPSNTKVDKKVEPKSCDKTHTCPPCPAPELLAGPDVFLFPPKPKDTLMISRTPEVTCVVVDVSHEDPEVKFNWYVDGVEVHNAKTKPREEQYNSTYRVVSVLTVLHQDWLNGKEYKCKVSNKALPAPEEKTISKAKGQPREPQVCTLPPSRDELTKNQVSLWCLVKGFYPSDIAVEWESNGQPENNYKTTPPVLDSDGSFFLYSKLTVDKSRWQQGNVFSCSVMHEALHNHYTQKSLSLSP
# chain 2: B2 chain 1 with C347Y, D354C, W364S, L366A, Y405V
# chain 3: DIVMTQSPLSLPVTPGEPASISCQASESLVHSNRNTYLHWYLQKPGQSPQLLIYKVSNRFSGVPDRFSGSGSGTDFTLKISRVEAEDVGVYYCSQNTHVPPTFGQGTKVEIERTVAAPSVFIFPPSDEQLKSGTASVVCLLNNFYPREAKVQWKVDNALQSGNSQESVTEQDSKDSTYSLSSTLTLSKADYEKHKVYACEVTHQGLSSPVTKSFNRGEC
# B3: GpH7-Kn056/GpH7-Hl055/GpL16-k0 (antibody)
# chain 1: B2 chain 1 with L232Y, L233Y, D237S, H266D, Q293L, S296A, E330I
# chain 2: B2 chain 1 with Q293L, A328M, C347Y, D354C, W364S, L366A, Y405V
# chain 3: B2 chain 3
# B4: GpH7-Kn032/GpH7-Hl032/GpL16-k0 (antibody)
# chain 1: B2 chain 1 with A234G, A328L
# chain 2: B2 chain 1 with A234G, A328L, C347Y, D354C, W364S, L366A, Y405V
# chain 3: B2 chain 3
# B5: GpH7-Kn045/GpH7-Hl055/GpL16-k0 (antibody)
# chain 1: B2 chain 1 with L232Y, L233Y, D237S, H266D, S296A, E330I
# chain 2: B2 chain 1 with Q293L, A328M, C347Y, D354C, W364S, L366A, Y405V
# chain 3: B2 chain 3
# B6: GpH7-Kn033/GpH7-Hl033/GpL16-k0 (antibody)
# chain 1: not shown
# chain 2: not shown
# chain 3: B2 chain 3
# B7: H240-Kn179/H240-Hl089/L73-k0 (antibody)
# chain 1: B1 chain 1 with L233Y, L234Y, G235W, D238M, H267D, E293K, S297A, A326D, L329A, E331I
# chain 2: QDQLVQSGAEVKKPGASVKVSCKASGFNIKDTYIQWVRQAPGQGLEWMGRIDPLRKQTKYREKFEGRVTITADTSTNTAYMELSSLRSEDTAVYYCVRSGREFDYWGQGTLVTVSSASTKGPSVFPLAPSSKSTSGGTAALGCLVKDYFPEPVTVSWNSGALTSGVHTFPAVLQSSGLYSLSSVVTVPSSSLGTQTYICNVNHKPSNTKVDKKVEPKSCDKTHTCPPCPAPELLTGPSVFLFPPKPKDTLMISRTPEVTCVVVDVSHEEPEVKFNWYVDGVEVHNAKTKPREEQYNSTYRVVSVLTVLHQDWLNGKEYKCKVSNDALPKPIEETISKAKGQPREPQVYTLPPSRCELTKNQVSLSCAVKGFYPSDIAVEWESNGQPENNYKTTPPVLDSDGSFFLVSKLTVDKSRWQQGNVFSCSVMHEALHNHYTQKSLSLSP
# chain 3: B1 chain 3
# B8: H240-Kn193/H240-Hl204/L73-k0 (antibody)
# chain 1: B1 chain 1 with L233Y, L234N, G235W, D238M, H267D, E293R, S297A, A326D, L329A, E331I
# chain 2: B7 chain 2 with I331E
# chain 3: B1 chain 3
# B9: H240-Kn192/H240-Hl204/L73-k0 (antibody)
# chain 1: B1 chain 1 with L233Y, L234N, G235W, D238M, H267D, E293K, S297A, A326D, L329A, E331I
# chain 2: B7 chain 2 with I331E
# chain 3: B1 chain 3
# B10: H240-Kn180/H240-Hl089/L73-k0 (antibody)
# chain 1: B1 chain 1 with L233Y, L234Y, G235W, D238M, H267D, E293R, S297A, A326D, L329A, E331I
# chain 2: B7 chain 2
# chain 3: B1 chain 3
# Target: T5, FcgRIIIa F (human, UniProt P08637)
# T5 sequence (P08637 17-208): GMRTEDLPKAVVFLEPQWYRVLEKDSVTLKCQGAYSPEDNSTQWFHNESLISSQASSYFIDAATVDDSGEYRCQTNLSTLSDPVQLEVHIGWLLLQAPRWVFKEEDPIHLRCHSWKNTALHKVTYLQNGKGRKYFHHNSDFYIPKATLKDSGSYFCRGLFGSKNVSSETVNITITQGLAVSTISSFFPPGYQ
# Assay: SPR
row,Binder,Kd [nM]
1,B1,9.1

# Target: T1, FcgRIa
# Assay: SPR
row,Binder,Kd [nM]
1,B2,0.012
2,B3,0.023
3,B4,0.0028
4,B5,0.019
5,B6,0.069

# Target: T2, FcgRIIa H
# Assay: SPR
row,Binder,Kd [nM]
1,B2,27
2,B3,30
3,B4,470
4,B5,29
5,B6,590

# Target: T3, FcgRIIb
# Assay: SPR
row,Binder,Kd [nM]
1,B7,400
2,B8,290
3,B9,290
4,B10,380

# Target: T4, FcgRIIa R
# Assay: SPR
row,Binder,Kd [nM]
1,B7,18
2,B8,16
3,B9,19
4,B10,16

# Target: T3, FcgRIIb
# Assay: SPR
# Remark: another data set of the same source
row,Binder,Kd [nM]
1,B2,230
2,B3,260
3,B4,440
4,B5,240
5,B6,3600

# Target: T4, FcgRIIa R
# Assay: SPR
# Remark: another data set of the same source
row,Binder,Kd [nM]
1,B1,340

# Target: T2, FcgRIIa H
# Assay: SPR
# Remark: another data set of the same source
row,Binder,Kd [nM]
1,B1,690

# Target: T1, FcgRIa
# Assay: SPR
# Remark: another data set of the same source
row,Binder,Kd [nM]
1,B1,0.073

# Target: T3, FcgRIIb
# Assay: SPR
# Remark: another data set of the same source
row,Binder,Kd [nM]
1,B1,630

# Target: T4, FcgRIIa R
# Assay: SPR
# Remark: another data set of the same source
row,Binder,Kd [nM]
1,B2,17
2,B3,17
3,B4,250
4,B5,13
5,B6,740

# Target: T2, FcgRIIa H
# Assay: SPR
# Remark: another data set of the same source
row,Binder,Kd [nM]
1,B7,47
2,B8,35
3,B9,42
4,B10,38

# Target: T6, FcgRIIIa V (human, UniProt P08637)
# T6 sequence (P08637 17-208 F176V): as the sequence (P08637 17-208) above, with F160V counted along it
# Assay: SPR
row,Binder,Kd [nM]
1,B2,2.6
2,B3,0.66
3,B4,1.2
4,B5,0.72
5,B6,220

# Target: T1, FcgRIa
# Assay: SPR
# Remark: another data set of the same source
row,Binder,Kd [nM]
1,B7,0.46
2,B8,< 0.024
3,B9,< 0.019
4,B10,0.27

# Target: T6, FcgRIIIa V
# Assay: SPR
# Remark: another data set of the same source
row,Binder,Kd [nM]
1,B1,3.1

# Target: T5, FcgRIIIa F
# Assay: SPR
# Remark: another data set of the same source
row,Binder,Kd [nM]
1,B2,9.7
2,B3,1.4
3,B4,4.1
4,B5,1.6
5,B6,1600

# Target: T5, FcgRIIIa F
# Assay: SPR
# Remark: another data set of the same source
row,Binder,Kd [nM]
1,B7,39
2,B8,11
3,B9,12
4,B10,24

# Target: T6, FcgRIIIa V
# Assay: SPR
# Remark: another data set of the same source
row,Binder,Kd [nM]
1,B7,18
2,B8,1.8
3,B9,2.2
4,B10,14

# Target: T3, FcgRIIb
# Assay: SPR
# Remark: another data set of the same source
row,Binder,Kd [nM]
1,B1,620
